Patent US20230331828A1

How the values were obtained:
Aβ1-42 fibrils (human) = assay: competition ELISA; plate coated with fibril Aβ42; competitor hBP-biotin; IC50 of test divided by IC50 of hBP
[1] = target: Aβ plaques in APPxPS1 mouse brain (human) (UniProt P05067); assay: in vivo target engagement; APPxPS1 mice dosed 3 mg/kg SC weekly for three weeks; anti-human IgG IHC of cerebral cortex, % stained area
[2] = target: Aβ plaques in APPxPS1 mouse brain (human) (UniProt P05067); assay: in vivo target engagement; APPxPS1 mice dosed 10 mg/kg SC weekly for three weeks; anti-human IgG IHC of cerebral cortex, % stained area

Aβ1-42 fibrils (human), sequence (peptide, as listed by the source): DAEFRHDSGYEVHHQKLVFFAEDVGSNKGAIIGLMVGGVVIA
Aβ plaques in APPxPS1 mouse brain (human), sequence (P05067 672-713): as the sequence (peptide, as listed by the source) above

Binder | IC50 ratio (test:hBP) (Aβ1-42 fibrils (human)) | Plaque Binding (% ROI) [1] [% ROI] | Plaque Binding (% ROI) [2] [% ROI]
h3818G (antibody, V domains shown) VH: EVQLLESGGGLVQPGGSLRLSCAASGFTFANYGMSWVRQAPGKGLEWVASVRSGGSRTYYSDNVKGRFTISRDNSKNTLYLQMNSLRAEDTAVYYCVRYDHYSGSSDYWGQGTLVTVSS VL: DVVMTQSPLSLPVTLGEPASISCKSSQSLMDTDGKTYLNWLLQKPGQSPQRLIYKVSNRESGVPDRFSGSGSGTDFTLKISRVEAEDVGVYYCWQGTHFPRTFGQGTKVEIK | 1.18 | – | –
h2727 (antibody, V domains shown) VH: EVQLLESGGGLVQPGGSLRLSCAASGFTFSNYGMSWVRQAPGKGLEWVASIRSGSGRTYYSDNVKGRFTISRDNSKNTLYLQMNSLRAEDTAVYYCVRYDHYSGSSDYWGQGTLVTVSS VL: DVVMTQSPLSLPVTPGEPASISCKSSQSLLDYDGKTYLNWLLQKPGQSPQRLIYKVSNRDSGVPDRFSGSGSGTDFTLKISRVEAEDVGVYYCWQGTHFPRSFGQGTKVEIK | 3.06 | – | –
h2731 (antibody, V domains shown) VH: EVQLLESGGGLVQPGGSLRLSCAASGFTFSNYGMSWVRQAPGKGLEWVASIRSGSGRTYYSDNVKGRFTISRDNSKNTLYLQMNSLRAEDTAVYYCVRYDHYSGSSDYWGQGTLVTVSS VL: DVVMTQSPLSLPVTLGEPASISCKSSQSLLDYDGKTYLNWLLQKPGQSPQRLIYRVTNRDTGVPDRFSGSGSGTDFTLKISRVEAEDVGVYYCWQGTHFPRSFGQGTKVEIK | – | 0.07 | 0.079
h4921G (antibody, V domains shown) VH: EVQLLESGGGLVQPGGSLRLSCAASGFTFSNFGMSWVRQAPGKGLEWVASVRSGGGRTYYSDNVKGRFTISRDNSKNTLYLQMNSLRAEDTAVYYCVRYDHYSGTSDYWGQGTLVTVSS VL: DVVMTQSPLSLPVTLGEPASISCKSSQSLLDSDGKTYLNWLLQKPGQSPQRLIYRVTNRDTGVPDRFSGSGSGTDFTLKISRVEAEDVGVYYCWQGTHFPRTFGQGTKVEIK | 1.01 | – | –
h2927 (antibody, V domains shown) VH: EVQLLESGGGLVQPGGSLRLSCAASGFTFSNFGMSWVRQAPGKGLEWVASVRSGSGRTYYSDNVKGRFTISRDNSKNTLYLQMNSLRAEDTAVYYCVRYDHYTGTSDYWGQGTLVTVSS VL: DVVMTQSPLSLPVTPGEPASISCKSSQSLLDYDGKTYLNWLLQKPGQSPQRLIYKVSNRDSGVPDRFSGSGSGTDFTLKISRVEAEDVGVYYCWQGTHFPRSFGQGTKVEIK | 1.6 | – | –
h2926 (antibody, V domains shown) VH: EVQLLESGGGLVQPGGSLRLSCAASGFTFSNFGMSWVRQAPGKGLEWVASVRSGSGRTYYSDNVKGRFTISRDNSKNTLYLQMNSLRAEDTAVYYCVRYDHYTGTSDYWGQGTLVTVSS VL: DVVMTQSPLSLPVTPGEPASISCKSSQSLLDYDGKTYLNWLLQKPGQSPQRLIYKVSNRDSGVPDRFSGSGSGTDFTLKISRVEAEDVGVYYCWQGTHFPRTFGQGTKVEIK | 0.99 | – | –
h2929 (antibody, V domains shown) VH: EVQLLESGGGLVQPGGSLRLSCAASGFTFSNFGMSWVRQAPGKGLEWVASVRSGSGRTYYSDNVKGRFTISRDNSKNTLYLQMNSLRAEDTAVYYCVRYDHYTGTSDYWGQGTLVTVSS VL: DVVMTQSPLSLPVTPGEPASISCRSSQSLVDYDGKTYLNWLLQRPGQSPQRLIYKVSNRDSGVPDRFSGSGSGTDFTLKISRVEAEDVGVYYCWQGSHFPRSYGQGTKVEIK | 1.16 | – | –
h2826 (antibody, V domains shown) VH: EVQLLESGGGLVQPGGSLRLSCAASGFTFSNFGMSWVRQAPGKGLEWVASVRSGSGRTYYSDNVKGRFTISRDNSKNTLYLQMNSLRAEDTAVYYCVRYDHYSGTSDYWGQGTLVTVSS VL: DVVMTQSPLSLPVTPGEPASISCKSSQSLLDYDGKTYLNWLLQKPGQSPQRLIYKVSNRDSGVPDRFSGSGSGTDFTLKISRVEAEDVGVYYCWQGTHFPRTFGQGTKVEIK | 1.1 | – | –
h4917G (antibody, V domains shown) VH: EVQLLESGGGLVQPGGSLRLSCAASGFTFSNFGMSWVRQAPGKGLEWVASVRSGGGRTYYSDNVKGRFTISRDNSKNTLYLQMNSLRAEDTAVYYCVRYDHYSGTSDYWGQGTLVTVSS VL: DVVMTQSPLSLPVTLGEPASISCKSSQSLLDSDGKTYLNWLLQKPGQSPQRLIYKVTNRESGVPDRFSGSGSGTDFTLKISRVEAEDVGVYYCWQGTHFPRSFGQGTKVEIK | 2.69 | – | –
h49k3G (antibody, V domains shown) VH: EVQLLESGGGLVQPGGSLRLSCAASGFTFSNFGMSWVRQAPGKGLEWVASVRSGGGRTYYSDNVKGRFTISRDNSKNTLYLQMNSLRAEDTAVYYCVRYDHYSGTSDYWGQGTLVTVSS VL: DVVMTQSPLSLPVTLGEPASISCKSSQSLLDSDGKTYLNWLLQKPGQSPQRLIYKVSNRDSGVPDRFSGSGSGTDFTLKISRVEAEDVGVYYCWQGTHFPRTFGQGTKVEIK | 2.16 | – | –
